Key:
mouse FcRn [1] = target: T1, mouse FcRn (mouse, UniProt Q61559 22-297; P01887 21-119, limits assumed); assay: SPR, Fc loaded on anti-human Fc biosensors
T1 construct: also called mFcRn; murine FcRn
T1 sequence (looked up) 1: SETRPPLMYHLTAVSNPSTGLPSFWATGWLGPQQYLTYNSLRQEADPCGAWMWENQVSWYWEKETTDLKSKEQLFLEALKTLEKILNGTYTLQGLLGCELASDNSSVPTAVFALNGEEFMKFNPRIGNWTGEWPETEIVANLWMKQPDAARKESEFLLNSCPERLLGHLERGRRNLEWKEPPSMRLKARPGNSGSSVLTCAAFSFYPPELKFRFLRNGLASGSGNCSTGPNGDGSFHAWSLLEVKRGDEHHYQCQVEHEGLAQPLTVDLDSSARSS
T1 sequence (looked up) 2: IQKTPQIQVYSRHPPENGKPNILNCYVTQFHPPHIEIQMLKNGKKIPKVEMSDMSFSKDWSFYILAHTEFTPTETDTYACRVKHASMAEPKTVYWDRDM
Procedure: (§1) Dissociation constants (KDs) are plotted as μM (solid bars) and association constants (KAs) are plotted as Ms⁻¹ (hatched bars). (FIG. 9E and FIG. 9F) Female WT C57BL/6 (FIG. 9E) and humanized homozygous FcRn (Tg32) mice (FIG. 9F) were administered one dose of 50 mg/kg or 100 mg/kg of F241A/B4ST6 Fc or 10 mg/kg of Fc^Abdeg and serum mouse IgG was measured via ELISA out to day 7 post-dose. (FIG. 9G) SIGN-R1^{-/-} and hDC-SIGN⁺ murine bone marrow-derived macrophages (BMDMs) had their Fcγ receptors blocked then were incubated with PBS, F241A/B4ST6 Fc, or Fc^Abdeg and binding was detected by FACS using an anti-human IgG Fc antibody. […] (FIG. 911-9J) Female WT C57BL/6 mice (n=5 per group) and female and male SIGN-R1^{-/-} mice (n=5 per group) were administered arthritogenic K/BxN serum alongside PBS, 1 g/kg IVIG, 50 mg/kg F241A/B4ST6 Fc, or 10 mg/kg Fc^Abdeg in a preventative manner, and joint swelling was clinically scored for 10 days. […] Statistical significance was assessed using an ordinary one-way ANOVA with Tukey's multiple comparisons.
(§2) At the outset, the interactions between WT Fc, F241A/B4ST6 Fc, and Fc^Abdeg were tested with mouse and human FcRn using surface plasmon resonance (SPR). […] C57BL/6 and hFcRn (Tg32) mice were given a single intravenous injection of F241A/B4ST6 Fc or Fc^Abdeg and, following dosing, serum mIgG was determined via ELISA.

human FcRn [2] = target: T2, human FcRn (human, UniProt P55899 24-297; P61769 21-119, limits assumed); assay: SPR, Fc loaded on anti-human Fc biosensors
T2 construct: also called hFcRn
Procedure: as §1, §2

mouse FcRn [3] = target: T1, mouse FcRn; assay: not stated in the sentence (apparently the SPR of Example 7)
mouse FcRn [4] = target: T1, mouse FcRn; assay: SPR; Fc loaded on anti-human Fc biosensors, mouse FcRn in solution
Procedure: as §1, §2

human FcRn [5] = target: T2, human FcRn; assay: SPR; Fc loaded on anti-human Fc biosensors, human FcRn in solution
Procedure: as §1, §2

[6] = target: T3, human Dendritic Cell-Specific ICAM-3-Grabbing Non-Integrin (DC-SIGN) on hDC-SIGN^+/SIGN-R1^-/- murine bone … (human, UniProt Q9NNX6 1-404); assay: flow cytometry on hDC-SIGN^+/SIGN-R1^-/- BMDMs, Fc gamma receptors blocked, detection with anti-hIgG Fc antibody
T3 construct: whole, on cells; also called hCD209
T3 sequence (looked up): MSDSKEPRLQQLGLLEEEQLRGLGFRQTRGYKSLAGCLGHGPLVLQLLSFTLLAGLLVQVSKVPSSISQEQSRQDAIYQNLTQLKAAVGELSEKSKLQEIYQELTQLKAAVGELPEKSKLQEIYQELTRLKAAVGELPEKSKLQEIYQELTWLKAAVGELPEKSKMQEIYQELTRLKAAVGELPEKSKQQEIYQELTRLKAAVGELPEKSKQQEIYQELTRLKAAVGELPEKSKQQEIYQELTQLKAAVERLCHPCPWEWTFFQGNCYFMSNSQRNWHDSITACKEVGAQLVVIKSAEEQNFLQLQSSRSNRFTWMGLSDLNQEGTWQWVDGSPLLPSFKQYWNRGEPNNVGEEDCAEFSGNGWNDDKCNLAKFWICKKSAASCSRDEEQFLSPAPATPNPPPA
Procedure: Both IVIG and sialylated IgG Fc require the murine C-type lectin Specific ICAM3-Grabbing Non-Integrin Related-1 (SIGN-R1) to mediate anti-inflammatory activity in vivo. This requirement can be circumvented by introduction of SIGN-R1 human orthologue, Dendritic Cell-Specific ICAM-3-Grabbing Non-Integrin (DC-SIGN). Therefore, the ability of both F241A/B4ST6 Fc and Fc^Abdeg to bind DC-SIGN was examined via a cell-binding assay. […] Cells were cultured overnight in high glucose DMEM medium supplemented with 1× antibiotic-antimycotic and 1×FBS at 37° C. and 5% CO₂. The next day, supernatants were discarded and cells were detached with enzyme-free dissociation buffer. Suspended cells were collected and centrifuged for 10 minutes at 400 rpm. The pellet was resuspended and washed in binding buffer (1×TBS, […], 2.5% FBS and 0.05% sodium azide). Fc receptors were blocked by adding anti-mouse CD16/32 antibody clone 93. After blocking, cells were washed in binding buffer, after which 100 μg/mL of Fc^Abdeg and F241A/B4ST6 Fc were added to the cells, which were then incubated for 1 hour on ice. […] BMDMs were analyzed by flow cytometry to detect surface-bound IgG. No bound IgG were detected on the SIGN-R1^{-/-} BMDMs incubated with F241A/B4ST6 Fc or Fc^Abdeg (FIG. 9G). However, IgG was detected on hDC-SIGN⁺/SIGN-R1^{-/-} BMDMs treated with F241A/B4ST6 Fc, but not with Fc^Abdeg (FIG. 9G).

T2 sequence (P55899 24-297 limits assumed, chain 1 of 2): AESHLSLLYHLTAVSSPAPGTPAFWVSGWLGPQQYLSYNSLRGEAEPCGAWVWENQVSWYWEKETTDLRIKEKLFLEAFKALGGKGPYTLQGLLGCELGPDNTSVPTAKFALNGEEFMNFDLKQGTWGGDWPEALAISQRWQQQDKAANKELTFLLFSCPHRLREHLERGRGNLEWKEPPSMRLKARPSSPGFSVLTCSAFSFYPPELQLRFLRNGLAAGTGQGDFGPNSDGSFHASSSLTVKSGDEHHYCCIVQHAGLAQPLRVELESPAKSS
T2 sequence (P61769 21-119 limits assumed, chain 2 of 2): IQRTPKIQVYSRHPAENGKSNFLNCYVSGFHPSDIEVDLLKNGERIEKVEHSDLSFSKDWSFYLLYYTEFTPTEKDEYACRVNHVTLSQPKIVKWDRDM

B1: Fc^Abdeg polypeptide (efgartigimod), human IgG1 Fc with M252Y/S254T/T256E/H433K/N434F (other)
chain: DKTHTCPPCPAPELLGGPSVFLFPPKPKDTLYITREPEVTCVVVDVSHEDPEVKFNWYVDGVEVHNAKTKPREEQYNSTYRVVSVLTVLHQDWLNGKEYKCKVSNKALPAPIEKTISKAKGQPREPQVYTLPPSRDELTKNQVSLTCLVKGFYPSDIAVEWESNGQPENNYKTTPPVLDSDGSFFLYSKLTVDKSRWQQGNVFSCSVMHEALKFHYTQKSLSLSPG
notes: also called EFG Fc
- fold lower KD than F241A/B4ST6 Fc (mouse FcRn [1]): 267 fold
- fold lower KD than F241A/B4ST6 Fc (human FcRn [2]): 39 fold
- fold enhanced affinity compared to human FcRn (mouse FcRn [3]): 10 fold
- Kd (mouse FcRn [4]): 0.27 nM
- Kd (human FcRn [5]): 5.2 nM
- binding result [6]: no binding (tested: 100 µg/mL)
